Reference: paper PMC3923129

Molecular target: sigmaA-RNAP holoenzyme (housekeeping RNA polymerase) (Bacillus subtilis) (UniProt P20429+P37870+P37871+P06224)
Test: EMSA

sigmaA-RNAP holoenzyme (housekeeping RNA polymerase) (Bacillus subtilis), sequence (P20429 whole entry, chain 1 of 4): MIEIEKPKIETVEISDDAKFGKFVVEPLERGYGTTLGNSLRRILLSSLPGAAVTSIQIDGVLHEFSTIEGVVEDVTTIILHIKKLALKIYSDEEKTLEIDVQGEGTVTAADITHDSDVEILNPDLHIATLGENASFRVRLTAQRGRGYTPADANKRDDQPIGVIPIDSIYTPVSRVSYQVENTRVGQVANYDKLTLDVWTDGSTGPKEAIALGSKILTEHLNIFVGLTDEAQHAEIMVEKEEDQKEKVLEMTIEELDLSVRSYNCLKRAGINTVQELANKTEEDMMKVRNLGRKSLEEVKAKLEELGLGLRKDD
sigmaA-RNAP holoenzyme (housekeeping RNA polymerase) (Bacillus subtilis), sequence (P37870 whole entry, chain 2 of 4): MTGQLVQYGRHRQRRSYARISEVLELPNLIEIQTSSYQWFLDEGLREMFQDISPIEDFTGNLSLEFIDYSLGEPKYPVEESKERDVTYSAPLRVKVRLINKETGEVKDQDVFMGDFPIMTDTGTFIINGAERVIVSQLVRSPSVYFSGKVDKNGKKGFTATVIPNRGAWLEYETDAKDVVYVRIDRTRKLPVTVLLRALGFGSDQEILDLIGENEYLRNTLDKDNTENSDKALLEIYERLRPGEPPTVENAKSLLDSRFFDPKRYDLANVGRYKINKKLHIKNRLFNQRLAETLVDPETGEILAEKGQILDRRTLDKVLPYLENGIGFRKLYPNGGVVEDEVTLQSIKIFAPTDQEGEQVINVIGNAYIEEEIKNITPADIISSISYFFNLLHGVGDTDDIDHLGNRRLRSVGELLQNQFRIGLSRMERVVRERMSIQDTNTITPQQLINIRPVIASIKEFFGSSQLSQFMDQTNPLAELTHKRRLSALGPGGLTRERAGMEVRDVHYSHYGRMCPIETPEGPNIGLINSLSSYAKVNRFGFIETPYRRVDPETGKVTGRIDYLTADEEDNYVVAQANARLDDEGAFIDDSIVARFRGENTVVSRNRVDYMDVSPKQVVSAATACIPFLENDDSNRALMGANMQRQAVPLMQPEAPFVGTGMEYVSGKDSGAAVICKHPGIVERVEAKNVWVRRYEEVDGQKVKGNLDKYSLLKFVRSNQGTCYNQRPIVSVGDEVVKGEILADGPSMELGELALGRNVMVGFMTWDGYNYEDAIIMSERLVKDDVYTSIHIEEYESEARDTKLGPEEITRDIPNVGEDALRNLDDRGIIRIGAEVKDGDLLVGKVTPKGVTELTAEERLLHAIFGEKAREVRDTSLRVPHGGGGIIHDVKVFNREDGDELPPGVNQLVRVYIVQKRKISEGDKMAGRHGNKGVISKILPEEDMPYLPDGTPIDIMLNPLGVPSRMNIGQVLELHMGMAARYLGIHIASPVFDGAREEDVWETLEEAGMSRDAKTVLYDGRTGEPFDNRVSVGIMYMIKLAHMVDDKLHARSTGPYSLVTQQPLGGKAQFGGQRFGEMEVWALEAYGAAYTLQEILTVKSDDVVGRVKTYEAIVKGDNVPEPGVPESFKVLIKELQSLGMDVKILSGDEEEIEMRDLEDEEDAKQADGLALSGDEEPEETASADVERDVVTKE
sigmaA-RNAP holoenzyme (housekeeping RNA polymerase) (Bacillus subtilis), sequence (P37871 whole entry, chain 3 of 4): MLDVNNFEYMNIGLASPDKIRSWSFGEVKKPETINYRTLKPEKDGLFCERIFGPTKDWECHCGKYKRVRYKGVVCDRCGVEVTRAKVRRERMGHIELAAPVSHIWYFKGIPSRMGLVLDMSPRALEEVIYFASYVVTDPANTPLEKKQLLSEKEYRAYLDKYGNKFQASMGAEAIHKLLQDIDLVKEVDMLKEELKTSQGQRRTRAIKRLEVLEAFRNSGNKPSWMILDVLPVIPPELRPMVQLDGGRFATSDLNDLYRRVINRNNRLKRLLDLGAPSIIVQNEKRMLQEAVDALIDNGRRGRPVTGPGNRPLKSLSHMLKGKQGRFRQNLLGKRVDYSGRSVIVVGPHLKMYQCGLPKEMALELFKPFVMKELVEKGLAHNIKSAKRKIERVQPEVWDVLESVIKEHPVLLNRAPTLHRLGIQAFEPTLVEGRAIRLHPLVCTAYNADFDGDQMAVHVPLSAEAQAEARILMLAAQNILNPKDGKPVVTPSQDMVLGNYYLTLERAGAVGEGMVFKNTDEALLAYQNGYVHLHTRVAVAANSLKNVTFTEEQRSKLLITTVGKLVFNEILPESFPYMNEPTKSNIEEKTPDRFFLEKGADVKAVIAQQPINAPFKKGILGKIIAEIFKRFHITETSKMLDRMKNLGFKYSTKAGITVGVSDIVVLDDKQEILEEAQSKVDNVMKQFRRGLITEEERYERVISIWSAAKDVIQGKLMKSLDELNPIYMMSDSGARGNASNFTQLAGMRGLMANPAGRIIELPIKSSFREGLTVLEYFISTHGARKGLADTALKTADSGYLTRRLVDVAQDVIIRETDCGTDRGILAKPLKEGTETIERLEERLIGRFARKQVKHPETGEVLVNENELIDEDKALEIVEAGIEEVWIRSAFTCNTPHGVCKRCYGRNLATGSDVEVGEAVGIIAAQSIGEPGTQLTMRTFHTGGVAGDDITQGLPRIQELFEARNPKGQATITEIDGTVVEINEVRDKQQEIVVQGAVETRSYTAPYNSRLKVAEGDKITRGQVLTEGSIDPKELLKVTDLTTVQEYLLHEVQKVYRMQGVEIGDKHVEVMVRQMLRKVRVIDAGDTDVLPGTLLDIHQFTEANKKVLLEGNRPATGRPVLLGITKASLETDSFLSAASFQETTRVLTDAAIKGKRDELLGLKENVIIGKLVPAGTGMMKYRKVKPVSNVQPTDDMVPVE
sigmaA-RNAP holoenzyme (housekeeping RNA polymerase) (Bacillus subtilis), sequence (P06224 whole entry, chain 4 of 4): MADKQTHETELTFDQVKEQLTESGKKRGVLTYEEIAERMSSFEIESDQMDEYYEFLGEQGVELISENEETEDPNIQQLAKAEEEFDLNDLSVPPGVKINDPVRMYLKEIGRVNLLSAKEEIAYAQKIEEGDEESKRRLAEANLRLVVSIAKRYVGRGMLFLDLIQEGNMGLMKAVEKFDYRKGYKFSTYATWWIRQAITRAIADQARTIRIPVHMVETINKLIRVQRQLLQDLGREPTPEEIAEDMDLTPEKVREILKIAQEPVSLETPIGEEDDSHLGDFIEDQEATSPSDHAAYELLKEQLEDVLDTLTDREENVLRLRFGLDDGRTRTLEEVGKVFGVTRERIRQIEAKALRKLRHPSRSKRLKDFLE

Row | Substance | Kd
1 | 6S-1 RNA | 100 nM
2 | 6S-2 RNA | 135 nM
